# From patent US20180142030A1 (Bristol-Myers Squibb, published 2018)
# Numbering of substitutions follows the chain as printed. Names may count otherwise.
# B1: 12D6-24 V4 (antibody, human IgG1, kappa)
# heavy: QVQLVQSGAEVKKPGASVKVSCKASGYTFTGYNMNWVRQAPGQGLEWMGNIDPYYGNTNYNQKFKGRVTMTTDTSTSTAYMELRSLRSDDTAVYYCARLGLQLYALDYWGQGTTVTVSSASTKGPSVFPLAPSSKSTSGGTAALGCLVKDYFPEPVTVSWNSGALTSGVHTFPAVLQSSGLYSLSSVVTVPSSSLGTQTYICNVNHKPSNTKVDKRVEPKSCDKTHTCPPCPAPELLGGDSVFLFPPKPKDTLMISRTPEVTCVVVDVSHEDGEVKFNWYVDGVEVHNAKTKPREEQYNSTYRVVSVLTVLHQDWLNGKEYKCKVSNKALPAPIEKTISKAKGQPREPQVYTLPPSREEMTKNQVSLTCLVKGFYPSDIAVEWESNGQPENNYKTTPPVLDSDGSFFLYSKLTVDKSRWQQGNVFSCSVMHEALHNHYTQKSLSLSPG
# light: DIVMTQTPLSLPVTPGEPASISCRSSQSLVHSNANTYLHWYLQKPGQSPQLLIYKLTNRFFGVPDRFSGSGSGTDFTLKISRVEAEDVGVYYCSQSIHVPWTFGGGTKVEIKRTVAAPSVFIFPPSDEQLKSGTASVVCLLNNFYPREAKVQWKVDNALQSGNSQESVTEQDSKDSTYSLSSTLTLSKADYEKHKVYACEVTHQGLSSPVTKSFNRGEC
# B2: 5F11 (parental) (antibody, V domains shown)
# VH: QVQLQQSAAELARPGASVKMSCKASGYTFTDLSMHWIKQRPGQGLEWIGYITPSSGYTAYNQKFKGKTTLTADKSSSTAYMQLSSLTSEDSAVYYCARLILQRGAYWGQGTLVTVSA
# VL: DIVLTQSPASLAVSLGQRATISCRASKNVDSYGNSFMHWYQQKPGQPPKLLIYRASNLESGIPARFGGSGSGTDFTLTINPVEADDVATYYCQQSNEDPLTFGAGTKLELK
# notes: Mouse variable domains; also called 1802.3717.5F11.A11.E7; mAb 5F11
# B3: 12D6-24 V9 (antibody, human IgG1, kappa)
# heavy: QVQLVQSGAEVKKPGASVKVSCKASGYTFTGYNMNWVRQAPGQGLEWMGNIDPYYGNTNYNQKFKGRVTMTTDTSTSTAYMELRSLRSDDTAVYYCARLGLQLYALDYWGQGTTVTVSSASTKGPSVFPLAPSSKSTSGGTAALGCLVKDYFPEPVTVSWNSGALTSGVHTFPAVLQSSGLYSLSSVVTVPSSSLGTQTYICNVNHKPSNTKVDKRVEPKSCDKTHTCPPCPAPELLGDDSVFLFPPKPKDTLMISRTPEVTCVVVDVSHEDGEVKFNWYVDGVEVHNAKTKPREEQYNSTYRVVSVLTVLHQDWLNGKEYKCKVSNKALPRPIEKTISKAKGQPREPQVYTLPPSREEMTKNQVSLTCLVKGFYPSDIAVEWESNGQPENNYKTTPPVLDSDGSFFLYSKLTVDKSRWQQGNVFSCSVMHEALHNHYTQKSLSLSPG
# light: B1 light
# B4: 12D6-24-V9-DQ-sup (antibody)
# heavy: B3 heavy with D272Q
# light: B1 light
# notes: Tested as supernatant of antibody-producing cells; also called 12D6-24 V9 D270Q; copies: 2 + 2
# B5: 12D6-24 V9 D270E (antibody, human IgG1, kappa)
# heavy: B3 heavy with D272E
# light: B1 light
# B6: 12D6-24-V9-DA-sup (antibody)
# heavy: B3 heavy with D272A
# light: B1 light
# notes: Tested as supernatant of antibody-producing cells; also called 12D6-24 V9 D270A; copies: 2 + 2
# B7: 12D6-24-V9-DS-sup (antibody)
# heavy: B3 heavy with D272S
# light: B1 light
# notes: Tested as supernatant of antibody-producing cells; also called 12D6-24 V9 D270S; copies: 2 + 2
# B8: 5F11-45 V9 (antibody, human IgG1, kappa)
# heavy: QVQLVQSGAEVKKPGSSVKVSCKASGYTFTDLSMHWVRQAPGQGLEWMGYITPSSGYTAYNQKFKGKTTLTADKSTSTAYMELSSLRSEDTAVYYCARLILQRGAYWGQGTLVTVSSASTKGPSVFPLAPSSKSTSGGTAALGCLVKDYFPEPVTVSWNSGALTSGVHTFPAVLQSSGLYSLSSVVTVPSSSLGTQTYICNVNHKPSNTKVDKRVEPKSCDKTHTCPPCPAPELLGDDSVFLFPPKPKDTLMISRTPEVTCVVVDVSHEDGEVKFNWYVDGVEVHNAKTKPREEQYNSTYRVVSVLTVLHQDWLNGKEYKCKVSNKALPRPIEKTISKAKGQPREPQVYTLPPSREEMTKNQVSLTCLVKGFYPSDIAVEWESNGQPENNYKTTPPVLDSDGSFFLYSKLTVDKSRWQQGNVFSCSVMHEALHNHYTQKSLSLSPG
# light: DIVLTQSPDSLAVSLGERATINCRASKNVDSYGNSFMHWYQQKPGQPPKLLIYRASNLESGVPDRFSGSGSGTDFTLTISSLQAEDVAVYYCQQSNEDPLTFGQGTKLEIKRTVAAPSVFIFPPSDEQLKSGTASVVCLLNNFYPREAKVQWKVDNALQSGNSQESVTEQDSKDSTYSLSSTLTLSKADYEKHKVYACEVTHQGLSSPVTKSFNRGEC
# B9: 5F11-45-V9-DA-sup (antibody, human IgG1, kappa)
# heavy chain: B8 heavy with D270A
# light chain: B8 light
# notes: Tested as supernatant of antibody-producing cells; also called 5F11-45 V9 D270A
# B10: 5F11-45 V4 (antibody, human IgG1, kappa)
# heavy: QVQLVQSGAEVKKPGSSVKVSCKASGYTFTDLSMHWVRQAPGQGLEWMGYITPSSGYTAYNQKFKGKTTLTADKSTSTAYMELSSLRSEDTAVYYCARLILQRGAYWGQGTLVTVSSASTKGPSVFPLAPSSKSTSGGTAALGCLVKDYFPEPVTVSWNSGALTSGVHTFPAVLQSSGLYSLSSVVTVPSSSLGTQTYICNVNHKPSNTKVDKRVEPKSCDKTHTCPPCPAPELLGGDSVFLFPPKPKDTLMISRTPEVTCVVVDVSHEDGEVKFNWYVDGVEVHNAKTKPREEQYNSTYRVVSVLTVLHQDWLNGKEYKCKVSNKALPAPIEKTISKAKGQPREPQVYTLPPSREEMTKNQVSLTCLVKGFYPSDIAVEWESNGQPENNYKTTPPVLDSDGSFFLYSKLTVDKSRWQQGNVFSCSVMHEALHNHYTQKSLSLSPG
# light: B8 light
# B11: 5F11-45-V9-DS-sup (antibody, human IgG1, kappa)
# heavy chain: B8 heavy with D270S
# light chain: B8 light
# notes: Tested as supernatant of antibody-producing cells; also called 5F11-45 V9 D270S
# B12: 5F11-45 V9 D270E (antibody, human IgG1, kappa)
# heavy: B8 heavy with D270E
# light: B8 light
# B13: 5F11-45-V9-DQ-sup (antibody, human IgG1, kappa)
# heavy chain: B8 heavy with D270Q
# light chain: B8 light
# notes: Tested as supernatant of antibody-producing cells; also called 5F11-45 V9 D270Q
# Molecular target: T1, FcγRIIa-H131 (human, UniProt P12318 34-218, limits assumed)
# T1 construct: Construct not described; also called hCD32a/FcγRIIa-H131
# T1 sequence (looked up): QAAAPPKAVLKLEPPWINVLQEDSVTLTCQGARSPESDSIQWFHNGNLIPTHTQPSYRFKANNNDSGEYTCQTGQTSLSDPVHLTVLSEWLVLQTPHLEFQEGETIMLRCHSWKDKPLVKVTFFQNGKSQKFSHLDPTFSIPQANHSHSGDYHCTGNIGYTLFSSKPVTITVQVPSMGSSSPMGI
# Test: BLI (ForteBio Octet), % of maximum receptor binding (%Rmax) at 10 µM hCD32a/FcγRIIa-H131
# Method: (§1) See Example 8. Antibody names including “-sup” represent supernatants from antibody producing cells, whereas others are purified antibodies. Data are presented as percentages of a maximum receptor binding value for each combination of antibody and receptor, as measured in a ForteBio Octet system. See, e.g., Example 3. Each cluster of three bars represents, from left to right, binding to hCD32a/FcγRIIa-H131 (10 μM) (hatched bars), […] (10 μM) (black bars), and hCD32b/FcγRIIb (1 μM) (white bars).
# (§2) Supernatants were obtained from cells expressing these antibodies and assayed for binding to hCD32/FcγRII. Selected purified antibodies without mutations at position 270 were used as controls.
row,Binder,binding result
1,B1,binds

# Molecular target: T2, recombinant human CD40 monomer (human, UniProt P25942 21-193)
# T2 construct: also called huCD40-monomer; soluble human CD40
# T2 sequence (P25942 21-193 limits assumed): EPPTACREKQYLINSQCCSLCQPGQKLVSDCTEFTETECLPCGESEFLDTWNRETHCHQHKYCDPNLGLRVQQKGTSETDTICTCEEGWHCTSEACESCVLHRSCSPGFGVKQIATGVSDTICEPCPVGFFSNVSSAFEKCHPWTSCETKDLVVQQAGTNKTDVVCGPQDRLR
# Test: BLI (Octet RED); antibody supernatant captured on protein A sensors, huCD40-monomer in solution
# Source text: The closest matching human germline region sequence was selected for each mouse variable domain, and these human framework regions were used to replace murine frameworks in the “CDR graft” versions of the antibodies. Additional amino acid substitutions, such as framework back-mutations, were then made as necessary to restore the binding affinity of the humanized antibody. Further amino acid substitutions were made to eliminate sequence liabilities. The sequence relationships between the various forms of the antibodies of the present invention are provided at Table 6. The binding of various agonistic anti-huCD40 antibodies to soluble human CD40 was determined by Biolayer Interferometry (BLI) analysis using a Fortebio Octet RED (Rapid system—Extended Detection) label-free interaction analysis instrument. All studies were performed in 10 mM NaₓPO₄, 130 mM NaCl, 0.05% Surfactant P20 (pH 7.1) at 25° C. Briefly, anti-huCD40 antibody supernatants (diluted to 10 μg/ml or captured undiluted if supernatant concentration was less than 10 μg/ml) were captured on protein A coated biosensors (Pall Fortebio #18-5010) using a loading time of 90 s and shake speed of 1000 rpm. Supernatants were first screened for binding to 1 μM recombinant human CD40 monomer (huCD40-monomer) using 180 s association and dissociation times, at 1000 rpm, with two 15 s conditioning steps using 10 mM glycine pH 1.5 in between binding cycles.
row,Binder,Kd [nM]
1,B2,4.7

# Molecular target: T3, FcγRIIb (human, UniProt P31994 43-217, limits assumed)
# T3 construct: Construct not described; also called hCD32b/FcγRIIb
# T3 sequence (looked up): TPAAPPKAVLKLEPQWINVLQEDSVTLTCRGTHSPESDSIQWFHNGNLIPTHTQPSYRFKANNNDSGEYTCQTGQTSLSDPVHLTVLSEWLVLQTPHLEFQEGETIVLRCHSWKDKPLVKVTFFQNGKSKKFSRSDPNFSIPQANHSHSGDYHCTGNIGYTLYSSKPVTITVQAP
# Test: BLI (ForteBio Octet), %Rmax at 1 µM hCD32b/FcγRIIb
# Method: as §1, §2
row,Binder,binding result
1,B3,binds
2,B4,binds
3,B1,binds
4,B5,binds
5,B6,binds
6,B7,binds
7,B8,binds
8,B9,binds
9,B10,binds
10,B11,binds
11,B12,binds
12,B13,binds

# Molecular target: T4, FcγRIIa-R131 (human, UniProt P12318 34-218, limits assumed)
# T4 construct: Construct not described
# T4 sequence (looked up): T1 sequence (looked up) with H134R
# Test: BLI (ForteBio Octet), %Rmax at 10 µM FcγRIIa-R131 (CD32a-R131 on the sheet)
# Method: as §1, §2
row,Binder,binding result
1,B3,binds
2,B4,binds
3,B1,binds
4,B5,binds
5,B6,binds
6,B7,binds
7,B8,binds
8,B9,binds
9,B10,binds
10,B11,binds
11,B12,binds
12,B13,binds

# Molecular target: T2, recombinant human CD40 monomer
# Test: BLI (Octet RED); run in parallel with 5F11-45
row,Binder,Kd [nM]
1,B2,8.2

# Molecular target: T1, FcγRIIa-H131
# Test: BLI (ForteBio Octet), %Rmax at 10 µM hCD32a/FcγRIIa-H131
# Method: as §1, §2
row,Binder,binding result
1,B3,binds
2,B4,binds
3,B5,binds
4,B6,binds
5,B7,binds
6,B8,binds
7,B9,binds
8,B10,binds
9,B11,binds
10,B12,binds
11,B13,binds
